# From paper doi:10.1101/474478 (bioRxiv, 2018)
# B1: mouse Nudt12 catalytic domain (residues 126-462), E219A/E220A/E221A triple mutant (domain or fragment, UniProt Q9DCN1 126-462, looked up)
# chain: LDRRSDKRNNSDWLQAKESHPTTVYLLFSDLNPLVTLGGNKESSQQPEVRLCQLNYPDVKGYLAQPEKITLVFLGVELEMRKGSPAQAGGVPEAAADGLVAWFALGIEPGAAEEFKQRHENCYFLHPPMPALLQLKEKEAGVVAQARSVLAWHSRYKFCPTCGSATKIEEGGYKRVCVRETCPSLQGVHNTSYPRVDPVVIMQVIHPDGTKCLLGRQKRFPPGMFTCLAGFIEPGETIEDAVRREVEEESGVKVGHVQYVSCQPWPMPSSLMIGCLAVAVSTEIKVDKNEIEDARWFTREQVVDVLTKGKQQAFFVPPSRAIAHQLIKHWVGMNPNL
# Target: the molecule itself
# Assay: crystal structure
protein,measurement,value
B1,stoichiometry N,2
